According to patent publication US20190218304A1, “POTENTIATING THE EFFECT OF ATP RELEASE” (INNATE PHARMA, priority 2017, published 2019):
“Also recorded” adds a separate entry of the source.

Columns and labels:
[1] = tested on: CHO cells expressing cynomolgus (macaca fascicularis) CD39; experiment: Antibody titration by flow cytometry on CHO-cyCD39; format: binding
Procedure: (§1) Cells were incubated with various concentration of unlabeled anti-CD39 antibody from 30 μg/ml to 5×10^−4 μg/ml, for 30 minutes at 4° C. After washes, cells were incubated with Goat anti-mouse H+L labeled secondary antibody for 30 min at 4° C.

[2] = tested on: cynomolgus CD39-expressing CHO cells; experiment: Inhibition of the enzymatic activity of cellular CD39, CHO-cyCD39 cells; format: cell-based; conditions: result in words
Procedure: (§2) The inhibition of the CD39 enzymatic activity in CD39-expressing cells by antibodies was evaluated using Cell Titer Glo™ (Promega, reference G7571) that allows assessment of ATP hydrolysis through use of a reagent that generates a luminescent signal proportional to the amount of ATP present. The assay was thus designed to permit assessment of the inhibition of ATP hydrolyzed by CD39 in the cell culture supernatant. Briefly, 5×10^4 Ramos human lymphoma cells, 5×10^3 human CD39-, cynomolgus CD39- and mouse CD39-expressing CHO cells, were incubated 1 hour at 37° C. with anti-CD39 antibodies from 30 μg/ml to 5×10^−4 μg/ml. Cells were then incubated with 20 μM ATP for 1 additional hour at 37° C. Plates were centrifuged for 2 min at 400 g and 50 μl cell supernatant are transferred in a luminescence microplate (white wells). 50 μl CellTiter-Glo® Reagent (CTG) was added to the supernatant and emitted light was quantified after a 5 min incubation in the dark using a Enspire™ luminometer. Anti-CD39 antibody efficacy was determined by comparing emitted light in presence of antibody with ATP alone (maximal light emission) and ATP together with cells (minimal light emission).

[3] = target: T1, CD39 expressed by Ramos human lymphoma cells (Homo sapiens, UniProt P49961); experiment: Inhibition of the enzymatic activity of cellular CD39, Ramos cells (Cell Titer Glo); format: cell-based
T1 construct: host or cells: Ramos human lymphoma cells
T1 sequence (P49961 1-510): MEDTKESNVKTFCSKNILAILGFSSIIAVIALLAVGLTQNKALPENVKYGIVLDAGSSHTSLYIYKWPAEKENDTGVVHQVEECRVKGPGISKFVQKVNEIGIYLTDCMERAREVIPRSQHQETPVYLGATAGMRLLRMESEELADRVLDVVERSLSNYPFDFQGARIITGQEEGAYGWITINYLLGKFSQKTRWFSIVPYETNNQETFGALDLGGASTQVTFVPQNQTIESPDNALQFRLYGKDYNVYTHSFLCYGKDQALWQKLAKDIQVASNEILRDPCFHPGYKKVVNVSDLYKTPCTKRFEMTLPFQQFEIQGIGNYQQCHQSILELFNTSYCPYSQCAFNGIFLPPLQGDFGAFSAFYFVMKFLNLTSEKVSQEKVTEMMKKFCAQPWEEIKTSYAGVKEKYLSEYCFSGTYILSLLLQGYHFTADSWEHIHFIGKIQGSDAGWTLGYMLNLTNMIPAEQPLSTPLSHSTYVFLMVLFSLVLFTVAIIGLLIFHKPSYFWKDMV
Procedure: as §2

[4] = target: T2, human Ramos lymphoma cells (Homo sapiens, UniProt P49961); experiment: Antibody titration by flow cytometry on Ramos cells; format: binding
T2 construct: host or cells: Ramos human lymphoma cells
T2 sequence (P49961 1-510): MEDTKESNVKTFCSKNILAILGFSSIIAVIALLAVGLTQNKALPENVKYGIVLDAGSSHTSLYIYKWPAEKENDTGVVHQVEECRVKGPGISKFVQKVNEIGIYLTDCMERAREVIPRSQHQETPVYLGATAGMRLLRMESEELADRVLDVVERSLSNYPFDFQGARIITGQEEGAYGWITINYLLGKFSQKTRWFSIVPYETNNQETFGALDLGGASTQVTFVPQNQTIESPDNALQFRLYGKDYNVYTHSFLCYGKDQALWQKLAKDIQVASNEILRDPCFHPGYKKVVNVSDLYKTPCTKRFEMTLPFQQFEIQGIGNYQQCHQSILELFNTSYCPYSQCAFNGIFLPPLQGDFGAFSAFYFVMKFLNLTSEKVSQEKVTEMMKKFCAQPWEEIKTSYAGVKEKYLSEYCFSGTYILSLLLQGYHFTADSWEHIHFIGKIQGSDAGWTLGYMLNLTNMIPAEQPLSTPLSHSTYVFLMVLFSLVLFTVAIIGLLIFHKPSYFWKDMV
Procedure: as §1

[5] = target: T3, CHO cells expressing human CD39 (Homo sapiens, UniProt P49961); experiment: Antibody titration by flow cytometry on CHO-huCD39; format: binding
T3 construct: expressed in transfected cells; host or cells: CHO cells
T3 sequence (P49961 1-510): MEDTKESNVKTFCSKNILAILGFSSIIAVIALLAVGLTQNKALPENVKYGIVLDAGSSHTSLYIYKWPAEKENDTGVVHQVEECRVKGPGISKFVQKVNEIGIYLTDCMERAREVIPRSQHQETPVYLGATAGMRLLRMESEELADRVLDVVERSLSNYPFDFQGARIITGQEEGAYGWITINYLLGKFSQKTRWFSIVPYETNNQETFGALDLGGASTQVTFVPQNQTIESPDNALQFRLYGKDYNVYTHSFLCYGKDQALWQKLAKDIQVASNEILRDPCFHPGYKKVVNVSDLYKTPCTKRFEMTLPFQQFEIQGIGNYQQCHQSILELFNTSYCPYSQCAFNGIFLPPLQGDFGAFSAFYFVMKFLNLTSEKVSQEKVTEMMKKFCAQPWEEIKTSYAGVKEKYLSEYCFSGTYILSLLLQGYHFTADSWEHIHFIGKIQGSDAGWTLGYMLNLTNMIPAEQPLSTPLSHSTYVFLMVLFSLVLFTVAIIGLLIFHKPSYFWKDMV
Procedure: as §1

[6] = tested on: monocyte-derived DC (moDC); experiment: Activation of monocyte-derived dendritic cells in presence of ATP; format: cell-based, human; conditions: ATP at 0.125 mM, 0.25 mM or 0.5 mM, 24 hours; I-394 shown at 10 μg/ml
Procedure: While ATP has pro-inflammatory activity, CD39-mediated catabolism of ATP is believed to be able to impair dendritic cell (DC) activation, in turn altering a broader adaptive immune response against tumor antigen. In order to evaluate whether CD39 blockade using anti-CD39 antibodies could overcome CD39-mediated alteration of dendritic cell (DC) activation in the presence of ATP, we incubated monocyte-derived DC (moDC) with anti-CD39 antibodies in the presence of ATP.
Briefly, human monocytes were purified from human healthy blood and differentiated into MoDC in presence of GM-CSF and IL-4 during 6 days. […] LPS (Invivogen, 10 ng/ml) was used as positive control. To assess resulting effect of ATP-mediated DC activation on CD4 T cells activation, ATP-activated DC were washed and then incubated with allogenic CD4 T cells (ratio 1 MoDC/4 T cells) for a mixed lymphocytes reaction (MLR) during 5 days. T cells activation and proliferation were analyzed through CD25 expression and Cell Trace Violet dilution by flow cytometry (FIG. 8).

[7] = target: T4, human CD39-expressing CHO cells (Homo sapiens, UniProt P49961); experiment: Inhibition of the enzymatic activity of cellular CD39, CHO-huCD39 cells; format: cell-based; conditions: result in words
T4 construct: expressed in transfected cells; host or cells: CHO cells
T4 sequence (P49961 1-510): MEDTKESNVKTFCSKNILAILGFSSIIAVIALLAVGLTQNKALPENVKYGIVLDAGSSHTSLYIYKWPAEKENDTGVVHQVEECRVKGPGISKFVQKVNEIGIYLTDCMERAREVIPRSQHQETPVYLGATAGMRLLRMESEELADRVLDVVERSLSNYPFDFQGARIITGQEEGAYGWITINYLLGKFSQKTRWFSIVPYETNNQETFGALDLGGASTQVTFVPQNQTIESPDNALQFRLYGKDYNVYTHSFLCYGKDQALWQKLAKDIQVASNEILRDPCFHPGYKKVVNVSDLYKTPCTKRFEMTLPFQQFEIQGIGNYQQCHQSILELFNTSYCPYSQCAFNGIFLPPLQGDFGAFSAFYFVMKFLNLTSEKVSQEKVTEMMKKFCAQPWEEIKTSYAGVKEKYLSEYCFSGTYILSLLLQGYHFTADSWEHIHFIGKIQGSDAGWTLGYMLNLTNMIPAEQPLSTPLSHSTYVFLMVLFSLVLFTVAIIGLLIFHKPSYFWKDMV
Procedure: as §2

[8] = target: T5, soluble recombinant human CD39 protein (Homo sapiens, UniProt P49961); experiment: Inhibition of the enzymatic activity of soluble CD39 (Cell Titer Glo); format: biochemical
T5 construct: made in house; host or cells: CHO cells
T5 sequence (P49961 with tags, fused parts or gaps): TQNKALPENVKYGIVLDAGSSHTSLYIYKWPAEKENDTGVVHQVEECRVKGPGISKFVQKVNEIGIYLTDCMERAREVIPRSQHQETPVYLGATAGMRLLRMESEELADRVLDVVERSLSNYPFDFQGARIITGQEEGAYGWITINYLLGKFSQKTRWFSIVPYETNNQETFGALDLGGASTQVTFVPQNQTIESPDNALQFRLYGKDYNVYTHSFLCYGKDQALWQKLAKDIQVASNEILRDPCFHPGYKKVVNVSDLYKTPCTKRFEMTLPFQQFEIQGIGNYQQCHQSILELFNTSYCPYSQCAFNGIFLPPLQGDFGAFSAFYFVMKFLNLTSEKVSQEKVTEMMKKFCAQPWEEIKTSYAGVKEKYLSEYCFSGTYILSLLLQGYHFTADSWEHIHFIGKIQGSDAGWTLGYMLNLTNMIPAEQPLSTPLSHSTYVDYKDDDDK
Procedure: The inhibition by antibodies of the enzymatic activity of soluble CD39 protein produced was evaluated using Cell Titer Glo™ (Promega, reference G7571) that allows assessment of ATP hydrolysis through use of a reagent that generates a luminescent signal proportional to the amount of ATP present. In this way, inhibition of the soluble-CD39-meidatd ATP hydrolysis can be assessed. Briefly, dose ranges of anti-CD39 antibodies from 100 μg/ml to 6×10^−3 μg/ml were incubated with 400 ng/ml of soluble recombinant human CD39 protein having the amino acid sequence described in the Methods section (SEQ ID NO: 39), for 1 h at 37° C. 20 μM ATP was added to the plates for 30 additional minutes at 37° C. before addition of CTG (Cell Titer Glo) reagent. Emitted light was quantified using an Enspire™ luminometer after a short incubation period of 5 min in the dark. Anti-CD39 antibody efficacy was determined by comparing emitted light in presence of antibody with ATP alone (maximal light emission) and ATP together with soluble CD39 protein (minimal light emission).

B1: I-394: anti-CD39 antibody, VH SEQ ID NO: 3, VL SEQ ID NO: 4; heavy and light chains SEQ ID NOS: 37 and 38 (antibody)
heavy: EVQLQQSGPELVKPGASVKMSCKASGYTFTDYNMHWVKQSHGRTLEWIGYIVPLNGGSTFNQKFKGRATLTVNTSSRTAYMELRSLTSEDSAAYYCARGGTRFAYWGQGTLVTVSAASTKGPSVFPLAPSSKSTSGGTAALGCLVKDYFPEPVTVSWNSGALTSGVHTFPAVLQSSGLYSLSSVVTVPSSSLGTQTYICNVNHKPSNTKVDKRVEPKSCDKTHTCPPCPAPEAEGAPSVFLFPPKPKDTLMISRTPEVTCVVVDVSHEDPEVKFNWYVDGVEVHNAKTKPREEQYNSTYRVVSVLTVLHQDWLNGKEYKCKVSNKALPSSIEKTISKAKGQPREPQVYTLPPSREEMTKNQVSLTCLVKGFYPSDIAVEWESNGQPENNYKTTPPVLDSDGSFFLYSKLTVDKSRWQQGNVFSCSVMHEALHNHYTQKSLSLSPGK
light: DIVLTQSPASLAVSLGQRATISCRASESVDNFGVSFMYWFQQKPGQPPNLLIYGASNQGSGVPARFRGSGSGTDFSLNIHPMEADDTAMYFCQQTKEVPYTFGGGTKLEIKRTVAAPSVFIFPPSDEQLKSGTASVVCLLNNFYPREAKVQWKVDNALQSGNSQESVTEQDSKDSTYSLSSTLTLSKADYEKHKVYACEVTHQGLSSPVTKSFNRGEC
modifications: Chimeric homo sapiens mus musculus
[1]
  binding to cells expressing cynomolgus CD39 (CHO-cyCD39): bound; also recorded: binds
[2]
  blocking CD39 enzymatic activity in cells expressing cynomolgus CD39 (CHO-cyCD39): blocks CD39 enzymatic activity; also recorded: highly potent at blocking CD39 enzymatic activity
[3]; Ramos cells, 20 μM ATP
  maximum inhibition achieved, cellular CD39: 81.6%
[3]; result in words
  blocking CD39 enzymatic activity in tumor (Ramos) cells: highly potent at blocking CD39 enzymatic activity
[4]
  binding to Ramos lymphoma cells: bound; also recorded: binds
[5]
  binding to cells expressing human CD39 (CHO-huCD39): bound; also recorded: binds
[6]
  moDC activation as assessed by HLA-DR or CD83 expression: permitted moDC activation; also recorded: lead to moDC activation
[7]
  blocking CD39 enzymatic activity in cells expressing human CD39 (CHO-huCD39): blocks CD39 enzymatic activity; also recorded: highly potent at blocking CD39 enzymatic activity
[8]; 400 ng/ml soluble CD39, 20 μM ATP
  maximum inhibition achieved, soluble CD39: 74.9%
[8]; antibody added to hybridoma supernatants negative for sCD39 inhibition
  inhibition of ATPase activity of soluble CD39 when spiked into negative hybridoma supernatants: did not restore the ability of negative supernatants to inhibit ATPase activity of CD39
[8]; antibody purified from the negative supernatant with Protein A coated beads
  inhibition of ATPase activity after purification from negative supernatant: again able to inhibit
[8]; result in words
  inhibition of the enzymatic (ATPase) activity of soluble CD39 protein: strong inhibition; also recorded: inhibit soluble CD39; also recorded: inhibits the enzymatic activity; also recorded: highly potent at blocking the enzymatic activity
